Results as given in PMC7118224, “Molecular and Functional Analysis of Pore-Forming Toxin Monalysin From Entomopathogenic Bacterium Pseudomonas entomophila” (Frontiers in Immunology, 2020).

Tests used:
[1] = target: endogenous pro-Monalysin (Pseudomonas entomophila (endogenous in strain L48)) (UniProt Q1I8U1); test: high-speed atomic force microscopy; on mica surface in low salt buffer (30 mM NaCl, 10 mM sodium phosphate, pH 7.0), strongly immobilised
[2] = target: endogenous pro-Monalysin (Pseudomonas entomophila (endogenous in strain L48)) (UniProt Q1I8U1); test: high-speed atomic force microscopy; on mica surface in PBS buffer, room temperature (24-26°C)
[3] = target: the molecule itself; test: MALDI-TOF MS; active-Monalysin mixed with sinapic acid matrix; molecular weight of the multimer
[4] = target: the molecule itself; test: high-speed atomic force microscopy; on mica surface in low salt buffer (30 mM NaCl, 10 mM sodium phosphate, pH 7.0), strongly immobilised

endogenous pro-Monalysin, sequence (Q1I8U1 whole entry): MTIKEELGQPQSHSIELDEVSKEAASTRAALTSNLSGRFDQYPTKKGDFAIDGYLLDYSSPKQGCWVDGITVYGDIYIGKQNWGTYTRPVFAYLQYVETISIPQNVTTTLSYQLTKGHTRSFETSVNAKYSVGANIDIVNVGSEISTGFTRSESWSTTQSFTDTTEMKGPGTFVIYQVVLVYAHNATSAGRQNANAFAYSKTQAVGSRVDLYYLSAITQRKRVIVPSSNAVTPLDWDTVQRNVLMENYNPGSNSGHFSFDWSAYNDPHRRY

Molecule	stoichiometry N [1]	stoichiometry N [2]	stoichiometry N [3]	stoichiometry N [4]
endogenous pro-Monalysin (from UniProt Q1I8U1 1-271) (natural protein)	8	16		
active-Monalysin (trypsin-treated endogenous pro-Monalysin) (natural protein, UniProt Q1I8U1 34-271, looked up, Monalysin of Pseudomonas entomophila, product of trypsin cleavage of the pro-form; monomer of 27 kDa on SDS-PAGE; also called active-form; cleaved mature form; source: purified pro-Monalysin from P. entomophila L48, treated with trypsin (0.2 mg/mL, 25°C, 10 min)) NLSGRFDQYPTKKGDFAIDGYLLDYSSPKQGCWVDGITVYGDIYIGKQNWGTYTRPVFAYLQYVETISIPQNVTTTLSYQLTKGHTRSFETSVNAKYSVGANIDIVNVGSEISTGFTRSESWSTTQSFTDTTEMKGPGTFVIYQVVLVYAHNATSAGRQNANAFAYSKTQAVGSRVDLYYLSAITQRKRVIVPSSNAVTPLDWDTVQRNVLMENYNPGSNSGHFSFDWSAYNDPHRRY			~8	8
